Biological target: recombinant His-tagged MDM2 (amino acids 1-118) (human) (UniProt Q00987)
Experiment: FP; competition with PMDM6-F

Ki: 6.7 µM
Substance: natural p53 peptide (from UniProt P04637)
